Patent publication US20240325557A1 (INNATE PHARMA, published 2024)
Changes are numbered by the printed parent chain.

T1: wild-type human Nectin-4 on the CHO huNectin4 Cl.3C8 cell line (human, UniProt Q96NY8 32-510)
T1 construct: also called whole Nectin-4 protein; huNectin4 CI.3C8
T1 sequence: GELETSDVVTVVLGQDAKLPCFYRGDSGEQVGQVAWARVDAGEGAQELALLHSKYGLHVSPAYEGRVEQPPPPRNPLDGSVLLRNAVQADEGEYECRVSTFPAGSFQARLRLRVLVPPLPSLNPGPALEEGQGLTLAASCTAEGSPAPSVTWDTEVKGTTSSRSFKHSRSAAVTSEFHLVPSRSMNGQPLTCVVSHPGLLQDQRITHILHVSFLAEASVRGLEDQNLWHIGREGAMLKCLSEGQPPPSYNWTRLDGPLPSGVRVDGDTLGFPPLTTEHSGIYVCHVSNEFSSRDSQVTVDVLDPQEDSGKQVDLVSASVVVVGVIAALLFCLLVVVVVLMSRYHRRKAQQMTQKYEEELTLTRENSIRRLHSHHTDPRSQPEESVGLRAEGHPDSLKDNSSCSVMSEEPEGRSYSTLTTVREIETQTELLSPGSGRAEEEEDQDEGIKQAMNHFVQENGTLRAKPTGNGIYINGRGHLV

T2: Mouse Nectin-4 on CHO cells (mouse, UniProt Q8R007 32-508)
T2 construct: also called mouse Nectin 4 protein
T2 sequence: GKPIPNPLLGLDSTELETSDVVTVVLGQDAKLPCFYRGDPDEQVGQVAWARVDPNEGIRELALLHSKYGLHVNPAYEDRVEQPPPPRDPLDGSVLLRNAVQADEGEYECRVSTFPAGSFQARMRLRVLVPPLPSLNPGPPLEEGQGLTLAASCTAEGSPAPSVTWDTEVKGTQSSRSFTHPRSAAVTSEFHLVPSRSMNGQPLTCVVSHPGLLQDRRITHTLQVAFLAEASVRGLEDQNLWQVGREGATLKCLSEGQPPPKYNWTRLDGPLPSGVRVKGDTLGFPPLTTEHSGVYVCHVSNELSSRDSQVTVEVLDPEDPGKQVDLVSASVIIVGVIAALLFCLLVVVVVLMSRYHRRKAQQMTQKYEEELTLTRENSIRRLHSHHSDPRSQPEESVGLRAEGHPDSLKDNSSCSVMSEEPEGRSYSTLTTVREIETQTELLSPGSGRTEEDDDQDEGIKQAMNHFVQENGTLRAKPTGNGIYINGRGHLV

T3: huNectin4-C1C2-V5 (C1C2 construct, lacking the Ig-like V domain) (human, UniProt Q96NY8 148-510)
T3 construct: Expressed on CHO cells; also called Hu-Nectin4 IgC1C2-V5; Nectin4-C1C2-V5 sorted cells
T3 sequence: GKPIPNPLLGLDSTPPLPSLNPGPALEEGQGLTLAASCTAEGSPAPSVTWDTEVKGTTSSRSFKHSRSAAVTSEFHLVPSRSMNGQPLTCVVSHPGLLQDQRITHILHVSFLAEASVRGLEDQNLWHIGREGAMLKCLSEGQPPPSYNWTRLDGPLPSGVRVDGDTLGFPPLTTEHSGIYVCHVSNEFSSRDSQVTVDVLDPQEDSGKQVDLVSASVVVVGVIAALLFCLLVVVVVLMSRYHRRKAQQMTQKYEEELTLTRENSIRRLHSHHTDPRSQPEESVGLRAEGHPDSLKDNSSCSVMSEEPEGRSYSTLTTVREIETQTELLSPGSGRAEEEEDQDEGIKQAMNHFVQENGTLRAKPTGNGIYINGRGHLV

T4: monomeric huNectin4-his-BirA protein (human, UniProt Q96NY8 32-349)
T4 construct: also called Human Nectin4-His-BirA; huNectin4-BirA
T4 sequence: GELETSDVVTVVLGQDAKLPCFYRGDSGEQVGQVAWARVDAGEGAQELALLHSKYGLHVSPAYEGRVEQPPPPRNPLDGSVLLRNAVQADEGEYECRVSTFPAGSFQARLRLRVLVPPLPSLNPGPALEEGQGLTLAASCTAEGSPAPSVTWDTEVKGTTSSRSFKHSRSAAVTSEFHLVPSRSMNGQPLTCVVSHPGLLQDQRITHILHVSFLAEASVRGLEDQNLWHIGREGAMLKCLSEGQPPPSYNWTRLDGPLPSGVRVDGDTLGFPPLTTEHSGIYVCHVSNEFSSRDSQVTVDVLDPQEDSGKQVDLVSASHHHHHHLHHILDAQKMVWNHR

T5: human Nectin-4 Mutant 7bis (human, UniProt Q96NY8 32-510)
T5 construct: Expressed on transfected HEK-293T cells; also called A72P/G73N/K197T/S199A
T5 chain: T1 sequence with A41P, G42N, K166T, S168A

T6: human Nectin-4 Mutant 7 (human, UniProt Q96NY8 32-510)
T6 construct: Expressed on transfected HEK-293T cells; also called S195A/K197T/S199A
T6 chain: T1 sequence with S164A, K166T, S168A

T7: Rat Nectin-4 on CHO cells (rat, UniProt Q8R007 31-508 (mouse entry))
T7 chain: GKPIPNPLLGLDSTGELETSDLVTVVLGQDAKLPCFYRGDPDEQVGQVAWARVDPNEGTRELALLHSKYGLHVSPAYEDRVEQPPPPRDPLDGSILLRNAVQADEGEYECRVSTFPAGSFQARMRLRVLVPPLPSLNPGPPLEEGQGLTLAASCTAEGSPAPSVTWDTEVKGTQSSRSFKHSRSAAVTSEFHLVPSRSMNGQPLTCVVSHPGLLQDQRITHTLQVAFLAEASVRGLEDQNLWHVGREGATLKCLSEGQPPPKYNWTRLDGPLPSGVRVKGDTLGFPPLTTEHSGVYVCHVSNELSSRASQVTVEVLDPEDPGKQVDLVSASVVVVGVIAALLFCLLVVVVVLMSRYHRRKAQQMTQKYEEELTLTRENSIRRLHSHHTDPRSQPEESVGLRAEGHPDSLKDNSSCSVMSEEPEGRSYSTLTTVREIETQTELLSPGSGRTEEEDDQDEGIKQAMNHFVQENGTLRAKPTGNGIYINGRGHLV

B1: antibody 5E7 (antibody, human IgG1, V domains shown)
VH: QVQLQQPGAELVKPGASVKLSCKASGYIFTSYWMHWVKQRPGQGLEWIGEIDPSDSYTNYNQKFKGKATLTLDKSSSTTYMQLSSLTSEDSAVYYCVRGYGNYGDYWGQGTTLTVSS
VL: DVVMTQAAFSNPVTLGTSASISCRSSKSLLHSNGITYLYWYLQKPGQSPQLLIYQMSNLASGVPDRFSSSGSGTDFTLRISRVEAEDVGVYYCAQNLELPWTFGGGTKLEIK
notes: Mouse variable domains; also called mAb6; Mab6
B2: antibody 10B12 (antibody, human IgG1, V domains shown)
VH: B1 VH with I28T, L72V, T79A
VL: B1 VL with V2I
notes: Mouse variable domains; also called mAb7; Mab7
B3: Enfortumab (ASG-22ME) (antibody, V domains shown)
VH: EVQLVESGGGLVQPGGSLRLSCAASGFTFSSYNMNWVRQAPGKGLEWVSYISSSSSTIYYADSVKGRFTISRDNAKNSLSLQMNSLRDEDTAVYYCARAYYYGMDVWGQGTTVTVSS
VL: DIQMTQSPSSVSASVGDRVTITCRASQGISGWLAWYQQKPGKAPKFLIYAASTLQSGVPSRFSGSGSGTDFTLTISSLQPEDFATYYCQQANSFPPTFGGGTKVEIKR
B4: mAb3 (antibody, V domains shown)
VH: B3 VH
VL: B3 VL

How the values were obtained:
[1] = target: T1, wild-type human Nectin-4 on the CHO …; assay: flow cytometry titration on CHO cells expressing wild-type human Nectin-4 (huNectin4), median MFI
Procedure: The characterization of the binding of the antibodies on Nectin-4 domains was performed by flow cytometry using cells made to express the wild-type human Nectin-4 protein and cells made to express a modified Nectin-4 having the Ig-like C₂ type 1 and the Ig-like C₂ type 2 domains and lacking the Ig-like V domain (the C1C2 construct). The latter protein additionally bears a V5 tag for flow cytometry cell sorting, and cells were used as Nectin4-C1C2-V5 sorted cells.

[2] = target: T2, Mouse Nectin-4 on CHO cells; assay: flow cytometry on CHO cells expressing mouse Nectin-4
[3] = target: T3, huNectin4-C1C2-V5 (C1C2 construct, …); assay: flow cytometry titration on Hu-Nectin4 IgC1C2-V5 sorted cells (row label printed IC50)
[4] = target: T4, monomeric huNectin4-his-BirA protein; assay: SPR (Biacore T200), antibody captured on Protein A, monomeric huNectin4-his-BirA injected
Procedure: Antibodies were tested for binding affinity to the wild-type human Nectin-4 protein by SPR (Surface Plasmon Resonance) methods. Measurements were performed on a Biacore T200 apparatus (Biacore GE Healthcare) at 25° C. Sensorgrams were analyzed with Biacore T100 Evaluation software. A CMR Sensor Chip with immobilized Protein A at about 600 RU was used. Anti-Nectin-4 antibodies were captured onto the Protein-A chip (antibodies diluted to 1 μg/ml in HBS-EP+1× buffer and injected over 120s at 40 μL/min). […] The chip was regenerated with NaOh 10 mM 2× for 30s at 40 μl/min. The sensorgram sets were fitted using the 1:1 kinetic binding model or two state reaction model, as a function of the profile of the curves.

[5] = target: T5, human Nectin-4 Mutant 7bis; assay: binding to HEK-293T cells transfected with the Nectin-4 mutant
human Nectin-4 Mutant 7 = target: T6, human Nectin-4 Mutant 7; assay: as above
[6] = target: T7, Rat Nectin-4 on CHO cells; assay: flow cytometry titration on CHO cells expressing rat Nectin-4, median MFI (PE)

Row | Binder | EC50 (read off the curve) [1] [µg/mL] | binding result [2] | EC50 [3] [µg/mL] | Kd [4] [nM] | koff [4] [s⁻¹] | kon [4] [M⁻¹ s⁻¹] | binding result [5] | binding result (human Nectin-4 Mutant 7) | EC50 (read off the curve) [6] [µg/mL]
1 | B1 | ~0.05 | no binding | 0.0524 | 4.8 | 0.003 | 620000 | no binding | no binding | –
2 | B2 | ~0.02 | no binding | 0.0197 | 12 | 0.01 | 860000 | no binding | no binding | –
3 | B3 | – | – | – | – | – | – | – | – | ~0.2
4 | B4 | ~0.2 | – | 0.156 | – | – | – | – | – | –
